Results on nine molecules are retold here after US11535650 (RA PHARMACEUTICALS, dated 2022).

Starred links: 1 amine or outer side, 2 acyl side, 3 side chain; linkers in the order of their positions; H or OH if unused. Positions of bridges follow the written chain, without caps; N, C: chain ends. Non-standard residues stand in square brackets, D forms with d. No end group written: not given here. mXylyl = bridging moiety between residues (mXylyl(i,j)); Trp(7-aza) = N[C@@H](Cc1c[nH]c2ncccc12)C(=O)O; pXylylene = c1cc(C[*:2])ccc1C[*:1]; Phg = N[C@H](C(=O)O)c1ccccc1; Tle = CC(C)(C)[C@H](N)C(=O)O; NMeS = CN[C@@H](CO)C(=O)O; Nva = CCC[C@H](N)C(=O)O A value given as a limit tells only on which side of the number the result lay.

The chains are these.
B1: R3003 (peptide)
peptide: Ac-[Nva]CYEN[Tle]Y[Trp(7-aza)]EYP[Phg]P-NH2
SMILES: CCC[C@H](NC(C)=O)C(=O)N[C@@H](CS)C(=O)N[C@@H](Cc1ccc(O)cc1)C(=O)N[C@@H](CCC(=O)O)C(=O)N[C@@H](CC(N)=O)C(=O)N[C@H](C(=O)N[C@@H](Cc1ccc(O)cc1)C(=O)N[C@@H](Cc1c[nH]c2ncccc12)C(=O)N[C@@H](CCC(=O)O)C(=O)N[C@@H](Cc1ccc(O)cc1)C(=O)N1CCC[C@H]1C(=O)N[C@H](C(=O)N1CCC[C@H]1C(N)=O)c1ccccc1)C(C)(C)C
B2: R3023 (peptide)
peptide: Ac-YPYC[Phg][Trp(7-aza)][Tle]E[Nva]NY[Nva]E-NH2
SMILES: CCC[C@H](NC(=O)[C@H](Cc1ccc(O)cc1)NC(=O)[C@H](CC(N)=O)NC(=O)[C@H](CCC)NC(=O)[C@H](CCC(=O)O)NC(=O)[C@@H](NC(=O)[C@H](Cc1c[nH]c2ncccc12)NC(=O)[C@@H](NC(=O)[C@H](CS)NC(=O)[C@H](Cc1ccc(O)cc1)NC(=O)[C@@H]1CCCN1C(=O)[C@H](Cc1ccc(O)cc1)NC(C)=O)c1ccccc1)C(C)(C)C)C(=O)N[C@@H](CCC(=O)O)C(N)=O
notes: negative control in the FP assays; also called control polypeptide; scrambled polypeptide variant of R3002
B3: R3076 (peptide)
peptide: VVYENGYWEYPGVK
modifications: Ac-Nvl-Nvl-Y-E-N-Tbg-Y-azaTrp-E-Y-P-Chg-Nvl-K-(BODIPY-TMR-X) NH2
notes: R3072 with BODIPY-TMR dye on the C-terminal lysine; fluorescent probe of the FP assay; also called Probe R3076; labeled probe

For orientation: IC50 means the point on the concentration scale where inhibition reaches its midpoint. Read a low IC50 as inhibition by little substance. The term Ki denotes the dissociation constant of the complex between target and ligand, obtained from inhibition or displacement. Higher therefore signals a looser hold on the target. Broadly, the Kd is a measure of binding affinity in units of concentration. A higher Kd goes with weaker binding.

The target of one experiment is T1, human C5 protein (human, UniProt P01031 19-673; P01031 678-1676).
T1 construct: Natural C5 is made from one precursor and circulates as two disulfide-linked chains; also called complement component C5; purified human C5
Nature of the experiment: competitive fluorescence polarization vs probe R3076, Exp 1. Here is the method:
(§1) Test articles listed in Table 7 were subsequently diluted in DMSO then assay buffer, comprising 10 2-fold dilutions and were then added to the assay plate in triplicate, rapidly. The assay plate was then incubated in the Paradigm (Molecular Devices, Sunnyvale, Calif.) plate reader for 60 minutes at 25° C.
(§2) After incubation for 60 minutes, the plate was read using the Paradigm FP protocol (Molecular Devices, Sunnyvale, Calif.) and raw polarization values were imported into Graphpad Prism.
For the molecule MCVERFCDVYWE-NH2 (linker 2-7 via mXylyl) [R3043], the IC50 came to 4330 nM and the inhibition constant Ki came out at 866 nM.
The like results for Ac-[Nva]C[Phg]T[Trp(7-aza)]EY[NMeS]HC[Nva]P-NH2 (linker 2-10 via mXylyl) [R3011] were, in that order, 295 nM and 73.2 nM.
Regarding B1, the IC50 was determined as 72.7 nM and the inhibition constant (Ki) is 10.4 nM.
Regarding Ac-C[Phg]T[Trp(7-aza)]EY[NMeS]HC[Nva]P[Nva]-NH2 (linker 1-9 via mXylyl) [R3014], the half-maximal inhibitory concentration (IC50) was 6060 nM and the Ki was found to be 1400 nM.
In the same order, the values of Ac-[Nva]C[Phg]T[Trp(7-aza)]EY[NMeS]HC[Nva]-NH2 (linker 2-10 via pXylylene) [R3050] are 267 nM and 71.1 nM.
In the same order, the values of B2 are more than 1000 nM and more than 1000 nM.

Another experiment has as its target T1, human C5 protein. Nature of the experiment: cell-based or functional assay.
With Ac-[Nva]C[Phg]T[Trp(7-aza)]EY[NMeS]HC[Nva]P[Nva]-NH2 (linker 2-10 via mXylyl) [R3008], the “IC50, C5a EIA on supernatant of human RBC hemolysis assay” value came to 54.5 nM and the “IC50, membrane attack complex (MAC) EIA on supernatant of human RBC hemolysis assay” value amounted to 33 nM.
On to VCYENGYWEYPGV (Ac-Nvl-C-Y-E-N-Tbg-Y-azaTrp-E-Y-P-Phg-Nvl-NH2) [R3002], for which the “IC50, C5a EIA on supernatant of human RBC hemolysis assay” value came out at 5.4 nM.

The target in a further experiment is T1, human C5 protein. The experiment in a line: fluorescence polarization, 25 nM R3076 with increasing concentrations of C5, average of 10 to 60 minutes. Here is the method:
Polarization was measured over time, until binding reached equilibrium. K_D was determined using Graphpad Prism (using "Saturating Binding Curves, One Site—Specific Binding With Hill Slope" as the curve fit to determine K_D).
B3: binding was characterised by a dissociation constant (Kd) of 8.07 nM.

The next experiment concerns the target T1, human C5 protein. Nature of the experiment: competitive fluorescence polarization vs probe R3076, Exp 2. The method, then:
as §1, §2
(In fluorescence polarisation assays a small probe gives low polarisation when free and higher when bound to something large.)
MCVERFCDVYWE-NH2 (linker 2-7 via mXylyl) [R3043] returned an IC50 of 4120 nM and a Ki of 882 nM.
Consider Ac-[Nva]C[Phg]T[Trp(7-aza)]EY[NMeS]HC[Nva]P-NH2 (linker 2-10 via mXylyl) [R3011], for which the concentration for half-maximal inhibition (IC50) is 261 nM and the Ki was found to be 86.9 nM.
The like results for B1 were, in that order, 64.1 nM and 8.69 nM.
Ac-C[Phg]T[Trp(7-aza)]EY[NMeS]HC[Nva]P[Nva]-NH2 (linker 1-9 via mXylyl) [R3014]: the IC50 was determined as 7580 nM and the affinity, expressed as Ki, was 1580 nM.
The like results for Ac-[Nva]C[Phg]T[Trp(7-aza)]EY[NMeS]HC[Nva]-NH2 (linker 2-10 via pXylylene) [R3050] were, in that order, 293 nM and 57.6 nM.
Regarding B2, the IC50 is more than 1000 nM and the inhibition constant Ki is more than 1000 nM.

A further experiment concerns the target T1, human C5 protein. Nature of the experiment: cell-based or functional assay. This is another data set of the same source.
Consider MCVERFCDVYWE-NH2 (linker 2-7 via mXylyl) [R3043], for which the “Avg. IC50, human hemolysis assay (complete human sera)” value (from here on “Avg. IC50, human hemolysis assay”) turned out to be 934 nM.
The same measure, in the same setting: then Ac-[Nva]C[Phg]T[Trp(7-aza)]EY[NMeS]HC[Nva]P-NH2 (linker 2-10 via mXylyl) [R3011], with 112 nM; and B1, with 13.9 nM.
On to Ac-C[Phg]T[Trp(7-aza)]EY[NMeS]HC[Nva]P[Nva]-NH2 (linker 1-9 via mXylyl) [R3014], for which the “Avg. IC50, human hemolysis assay” value amounted to 1420 nM.
Ac-[Nva]C[Phg]T[Trp(7-aza)]EY[NMeS]HC[Nva]P[Nva]-NH2 (linker 2-10 via mXylyl) [R3008]: the “Avg. IC50, human hemolysis assay” value came out at 97 nM.
Take Ac-[Nva]C[Phg]T[Trp(7-aza)]EY[NMeS]HC[Nva]-NH2 (linker 2-10 via pXylylene) [R3050]: the “Avg. IC50, human hemolysis assay” value stood at 42.9 nM.
Turning to B2, the “Avg. IC50, human hemolysis assay” value is more than 100000 nM.
Turning to B3, the “Avg. IC50, human hemolysis assay” value is 297 nM.

A further experiment concerns the target T1, human C5 protein. The experiment in a line: competitive fluorescence polarization vs probe R3076, average of two experiments. Here is the method:
as §1, §2
Molecule MCVERFCDVYWE-NH2 (linker 2-7 via mXylyl) [R3043] returned an IC50 of 4230 nM and an inhibition constant (Ki) of 874 nM.
In the same order, the values of Ac-[Nva]C[Phg]T[Trp(7-aza)]EY[NMeS]HC[Nva]P-NH2 (linker 2-10 via mXylyl) [R3011] are 278 nM and 80 nM.
Molecule B1 had an IC50 of 68.4 nM and an inhibition constant Ki of 9.54 nM.
For the molecule Ac-C[Phg]T[Trp(7-aza)]EY[NMeS]HC[Nva]P[Nva]-NH2 (linker 1-9 via mXylyl) [R3014], the half-maximal inhibitory concentration (IC50) was found to be 6820 nM and the inhibition constant (Ki) turned out to be 1500 nM.
The like results for Ac-[Nva]C[Phg]T[Trp(7-aza)]EY[NMeS]HC[Nva]-NH2 (linker 2-10 via pXylylene) [R3050] were, in that order, 280 nM and 64.3 nM.
B2 returned a half-inhibitory concentration (IC50) of more than 1000 nM and an inhibitory constant (Ki) of more than 1000 nM.
